{"source": "patent US10188706B2", "about": "“Plasminogen activator mutants as anti-fibrinolytic agents” (HADASIT MEDICAL RESEARCH SERVICES & DEVELOPMENT LIMITED, priority 2012, dated 2019)", "key": {"WT-tPA": {"tested_on": "WT-tPA", "sequence (P00750 36-562)": "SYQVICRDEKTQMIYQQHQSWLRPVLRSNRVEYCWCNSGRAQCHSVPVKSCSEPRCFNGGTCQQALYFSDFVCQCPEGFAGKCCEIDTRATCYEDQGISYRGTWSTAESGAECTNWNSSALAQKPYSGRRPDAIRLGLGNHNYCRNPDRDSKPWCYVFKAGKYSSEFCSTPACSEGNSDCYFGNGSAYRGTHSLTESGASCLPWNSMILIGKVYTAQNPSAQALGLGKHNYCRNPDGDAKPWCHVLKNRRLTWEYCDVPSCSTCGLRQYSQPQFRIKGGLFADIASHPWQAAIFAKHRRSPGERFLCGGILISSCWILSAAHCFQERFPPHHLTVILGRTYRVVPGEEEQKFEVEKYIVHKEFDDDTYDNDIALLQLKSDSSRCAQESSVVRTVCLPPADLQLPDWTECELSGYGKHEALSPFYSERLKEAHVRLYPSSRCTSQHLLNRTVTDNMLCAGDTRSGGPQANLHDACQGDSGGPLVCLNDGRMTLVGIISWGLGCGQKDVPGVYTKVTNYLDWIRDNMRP", "assay": "Fibrinolysis assay in human plasma derived clots, lysis by WT-tPA", "type": "biochemical", "procedure": "(§1) Fibrinolysis Assay in Human Plasma Derived Clots\n(§2) Clots were formed by placing human plasma (200 μL) in 16-mm diameter tissue culture wells flowed by adding thrombin (0.4 U/mL final concentration). Fibrinolysis was measured as described in Higazi A A et al., Blood (1998), 92(6):2075-83). Briefly, 10 μL tPA or uPA were placed over the plasma clots for 2 hours at 37° C., photographed and the diameter of the wholes were determined."}, "uPA [1]": {"target": "T1, uPA (Homo sapiens, UniProt P00749)", "T1 construct": "Single-chain urokinase (uPA) was purified, characterized as previously reported; made in house", "assay": "Fibrinolysis assay in human plasma derived clots, lysis by uPA", "type": "biochemical", "settings": "uPA 50 nM; mutant 50 nM; FIG. 2A, 2B", "procedure": "as §1, §2"}, "reteplase": {"target": "reteplase (Homo sapiens, UniProt P00750)", "assay": "Fibrinolysis assay in human plasma derived clots, lysis by reteplase", "type": "biochemical", "settings": "reteplase 20 nM, mutant 10 nM, FIG. 2B", "procedure": "as §1, §2"}, "tPA": {"tested_on": "tPA", "assay": "Plasminogen activator activity, chromogenic assay without fibrin, activation by tPA", "type": "biochemical, human", "settings": "FIG. 2D", "procedure": "(§3) Plasminogen Activator Activity\n(§4) Plasminogen activator activity was determined by adding tPA (50 nM) or uPA (20 nM), to a reaction mixture containing Glu-plasminogen and the plasmin chromogenic substrate Spectrazyme PL (100 μM) in phosphate-buffered saline (PBS) at 37° C., and the light absorbance at 405 nm was measured continuously over time. The initial velocities of plasmin generation at the different conditions were calculated from the change in the A405 nm over time. The initial velocity of the reaction at each plasminogen concentration was obtained by calculating the change in the rate of A405 over different time intervals and the results were expressed as the change in optical density (ΔOD) per minute, which represents the slope of the initial velocity of plasminogen activation (Higazi A et al., J Biol Chem. (1995), 270(29):17375-80)."}, "uPA [2]": {"target": "T1, uPA", "assay": "Plasminogen activator activity, chromogenic assay without fibrin, activation by uPA", "type": "biochemical", "settings": "FIG. 2D", "procedure": "as §3, §4"}, "WT mice subjected to CHI": {"tested_on": "WT mice subjected to CHI", "assay": "Closed head injury (CHI) model of TBI in WT mice", "type": "in vivo, mouse", "settings": "for neuroprotection (neurological severity score, NSS): given 2 hrs after CHI", "procedure": "Eight to twelve weeks old C57 mice obtained from Harlan, Israel. Mice were administered standard laboratory chow and water ad libitum, and kept in controlled temperature and light conditions. Animal experiments were carried out according to the guidelines of the Hebrew University-Institutional Committee for Care and Use of Laboratory Animals, and with the committee's approval.\nClosed Head Injury (CHI) Model\nHead trauma was induced by using a modified weight-drop device, as previously described (Chen Y. et al. (1996) J. Neurotrauma, 13:557-568). Briefly, after induction of ether anesthesia, a midline longitudinal incision was made, the skin was retracted and the skull was exposed. The left anterior frontal area was identified and a Teflon tipped cone (2-mm diameter) was placed 1 mm lateral to the midline, in the midcoronal plane. The head was held in place manually and a 75-g weight was dropped on the cone from a height of 18 cm, resulting in focal injury to the left hemisphere. After trauma, the mice received supporting oxygenation with 95% 02 for no longer than 2 min and were then returned to their cages. In sham controls only anesthesia and skin incision were carried out."}, "[3]": {"settings": "mutant 100 nM added together with TA"}}, "note": "Entries after “also recorded” stand apart in the source; their conditions may differ.", "data": [{"molecule": "tPA-S^481A-DS: tPA double mutant, Ser481 to Ala and KHRR299-302 to AAAA (PAI-1 docking site); SEQ ID NO. 2 or 13 (protein, listed as Homo sapiens, tPA double mutant, Ser481 to Ala and KHRR299-302 to AAAA (PAI-1 docking site); 2 or 13) GARSYQVICRDEKTQMIYQQHQSWLRPVLRSNRVEYCWCNSGRAQCHSVPVKSCSEPRCFNGGTCQQALYFSDFVCQCPEGFAGKCCEIDTRATCYEDQGISYRGTWSTAESGAECTNWNSSALAQKPYSGRRPDAIRLGLGNHNYCRNPDRDSKPWCYVFKAGKYSSEFCSTPACSEGNSDCYFGNGSAYRGTHSLTESGASCLPWNSMILIGKVYTAQNPSAQALGLGKHNYCRNPDGDAKPWCHVLKNRRLTWEYCDVPSCSTCGLRQYSQPQFRIKGGLFADIASHPWQAAIFAAAAASPGERFLCGGILISSCWILSAAHCFQERFPPHHLTVILGRTYRVVPGEEEQKFEVEKYIVHKEFDDDTYDNDIALLQLKSDSSRCAQESSVVRTVCLPPADLQLPDWTECELSGYGKHEALSPFYSERLKEAHVRLYPSSRCTSQHLLNRTVTDNMLCAGDTRSGGPQANLHDACQGDAGGPLVCLNDGRMTLVGIISWGLGCGQKDVPGVYTKVTNYLDWIRDNMRP", "values": [{"measurement": "potency as inhibitor of fibrinolysis compared with TA", "setting": "WT-tPA; TA tested at its maximal inhibitory concentration, FIG. 2B", "result": "more potent inhibitors of fibrinolysis than TA"}, {"measurement": "lysis of human plasma derived clots by WT-tPA", "setting": "WT-tPA; WT-tPA 20 nM, mutant 50 nM, FIG. 2A, 2B", "result": "Identical anti-fibrinolytic activity; also recorded: inhibited"}, {"measurement": "lysis of human plasma derived clots by uPA", "setting": "uPA [1]", "result": "Identical anti-fibrinolytic activity; also recorded: inhibited"}, {"measurement": "clot lysis induced by reteplase", "setting": "reteplase", "result": "inhibit the clot lysis induced by reteplase"}, {"measurement": "plasminogen activation by tPA in the absence of fibrin, in the presence of TA", "setting": "tPA; [3]", "result": "inhibited the plasminogen activation induced by tPA"}, {"measurement": "plasminogen activation by tPA in the absence of fibrin (change in OD per minute)", "setting": "tPA; plasminogen 500 nM, WT-tPA 50 nM, mutants 100 nM or TA 200 nM alone", "result": "Neither tPA-S^481A nor tPA-S^481A-DS inhibited"}, {"measurement": "plasminogen activation by uPA in the absence of fibrin, in the presence of TA", "setting": "uPA [2]; [3]", "result": "inhibited the activation of plasminogen by uPA"}, {"measurement": "plasminogen activation by uPA in the absence of fibrin (change in OD per minute)", "setting": "uPA [2]; plasminogen 500 nM, uPA 20 nM, mutants 100 nM or TA 200 nM alone", "result": "Neither tPA-S^481A nor tPA-S^481A-DS inhibited"}, {"measurement": "intracerebral hemorrhage increased by injected WT-tPA post CHI", "setting": "WT mice subjected to CHI; WT mice given WT-tPA 5 mg/kg immediately after CHI plus equimolar mutant", "result": "could be inhibited"}, {"measurement": "plasma levels of d-Dimers post CHI", "setting": "WT mice subjected to CHI; WT mice, 1 mg/kg IV, measured 2 hours after CHI, FIG. 4A, 1 mg/kg", "result": "significantly attenuated the increase in d-Dimers; also recorded: had the same effect on d-Dimers and post TBI thrombocytopenia"}, {"measurement": "platelet counts / thrombocytopenia post CHI", "setting": "WT mice subjected to CHI; WT mice, 1 mg/kg IV, measured 2 hours after CHI, FIG. 4B, 1 mg/kg", "result": "prevented the development of thrombocytopenia; also recorded: had the same effect on d-Dimers and post TBI thrombocytopenia"}, {"measurement": "CSF fibrinolytic activity post CHI", "setting": "WT mice subjected to CHI; WT mice, IV after CHI, CSF obtained 2 hours after CHI, tested on plasma derived clots", "result": "inhibited CSF fibrinolytic activity"}, {"measurement": "intracerebral hemorrhage (MRI, extravasation of Hgb) post CHI", "setting": "WT mice subjected to CHI; WT mice, IV immediately after or 2 hrs after CHI, Hgb at 2 or 8 hrs, MRI at 24 hrs", "result": "significantly attenuated the expansion of intracerebral hemorrhage; also recorded: decreased ICH to the same extent as tPA-S^481A"}, {"measurement": "inhibition of intracerebral hemorrhage compared with combination of TA and aprotinin", "setting": "WT mice subjected to CHI; combination in optimal concentrations, FIG. 3B", "result": "comparable to the inhibition induced by a combination of TA and aprotinin"}, {"measurement": "neuroprotection (neurological severity score, NSS)", "setting": "WT mice subjected to CHI; FIG. 5", "result": "the difference in neuroprotection provided by the two tPA variants vanished"}, {"measurement": "neuroprotection (neurological severity score, NSS)", "setting": "WT mice subjected to CHI; FIG. 5, listed as tPA^Ser481Ala-DS", "result": "lower neurological severity scores (NSS)"}, {"measurement": "neuroprotection (neurological severity score, NSS, 24 hours after CHI)", "setting": "WT mice subjected to CHI; given IV immediately after CHI, 1 mg/kg, FIG. 5", "result": "provided less neuroprotection than tPA-S^481A"}, {"measurement": "potency as inhibitor of intracerebral hemorrhage compared with TA or aprotinin", "setting": "WT mice subjected to CHI; optimal concentrations of TA or aprotinin, FIG. 3B", "result": "more potent inhibitors of intracerebral hemorrhage than optimal concentrations of TA or aprotinin"}]}]}
